Ends that are not written are not given here.
Molecular target: T1, Fc-tagged 2019-nCoV RBD-SD1 (SARS-CoV-2 (2019-nCoV), UniProt P0DTC2 319-591)
T1 construct: source: bought: Sanyou Biopharmaceuticals Co. Ltd
Assay: BLI
Settings: both partners purified

Binder | Kd [pM]
SALEEQYKTFLDKFMHELEDLLYQLAL (designed binder, also called peptide P10; source: synthetic peptide (solid-phase synthesis on rink amide resin, HPLC purified)) [P10] | 30 ± 10
SALEEQYKTFLDKFMHELEDLLYQLSL (designed binder, also called peptide P9) [P9] | 90 ± 80
SALEEQLKTFLDKFMHELEDLLYQLAL-NH2 (designed binder, also called peptide P8) [P8] | 24000 ± 11000

Source: paper PMC7881012, “Human ACE2 peptide-mimics block SARS-CoV-2 pulmonary cells infection” (Communications Biology, 2021)
